Three substances from paper PMC12823420 can be followed below.

The target of data set [1] is UAP56;SARNP (Homo sapiens;Homo sapiens) (UniProt Q13838). The experiment in a line: pull-down. To be noted: 1 mM AMP-PNP; UAP56 bound with SARNP set to 100%; GCI: 25 mM HEPES pH 7.9, 50 mM KCl, 1 mM MgCl2, 1 mM TCEP, 1 mM ATP, 25 C; AdML pull-down: 20 mM HEPES pH 7.9, 100 mM KCl, 2 mM MgCl2, 5% glycerol, 0.1% ….
Data set [2] deals with the THO complex (recombinant, surface-immobilized; tetramer, dimer or monomer, not told apart in the sentence). The experiment in a line: grating-coupled interferometry (GCI); V5-tagged THO complex captured on an anti-V5 chip; UAP56 injected in a 1:2 series from 5 μM, alone or with only 1 mM ATP or only 200 μM 15 U RNA; 25 mM HEPES pH 7.9, 50 mM KCl, 1 mM MgCl2, 1 mM TCEP, 25 °C; one-to-one model.

The target in data set [3] is ALYREF N-UBM peptide, biotinylated (human). Briefly: grating-coupled interferometry (GCI); biotinylated UBM or UCM peptides captured on a streptavidin chip; UAP56 injected; 25 mM HEPES pH 7.9, 50 mM KCl, 1 mM MgCl2, 1 mM TCEP, 25 °C; one-to-one model; UCM peptides also with AMP-PNP or AMP-PNP and 15 U RNA.
For data set [4], the target named is UAP56-UCM-1-N-UBM fusion (Homo sapiens) (UniProt Q13838+P82979+Q86V81). The experiment in a line: GCI. To be noted: 1 mM ATP, RNA immobilized, GCI: 25 mM HEPES pH 7.9, 50 mM KCl, 1 mM MgCl2, 1 mM TCEP, 25 C, AdML pull-down: 20 mM HEPES pH 7.9, 100 mM KCl, 2 mM MgCl2, 5% glycerol, 0.1% ….

In the case of AdML RNA with MS2 loops, 450 nt, in data set [1], the binding signal is 100%.

As to “UAP56 (from UniProt Q13838 1-428) (enzyme)”, the figures for the Kd in data set [2] and in data set [3] were 240 to 390 nM and 28000 nM, respectively.

As to UUUUUUUUUUUUUUU [15U RNA], in data set [4], the Kd – broadly, a measure of binding affinity in units of concentration – stood at 120 nM.
